Data reported in publication PMC3554688, “Potassium and Ionic Strength Effects on the Conformational and Thermal Stability of Two Aldehyde Dehydrogenases Reveal Structural and Functional Roles of K^+-Binding Sites” (PLoS ONE, 2013).

How the values were obtained:
[1] = target: the molecule itself; assay: dynamic light scattering; 20°C; K-buffer (non-salt buffer plus 250 mM KCl); 0.25 mg/ml enzyme
[2] = target: the molecule itself; assay: dynamic light scattering; 20°C; non-salt buffer (1 mM PIPES-TEA hydroxide pH 6.9, 1 mM EDTA, 0.5 mM DTT); 0.25 mg/ml enzyme; for SoBADH: dimers to tetramer
[3] = target: the molecule itself; assay: SEC; Superdex 200 HR 10/30, room temperature; K-buffer (1 mM PIPES-TEA hydroxide pH 6.9, 1 mM EDTA, 0.5 mM DTT, 250 mM KCl); 0.25 mg/ml protein

B1: betaine aldehyde dehydrogenase from spinach (Spinacia oleracea) (enzyme)
chain: MAFPIPARQLFIDGEWREPIKKNRIPVINPSTEEIIGDIPAATAEDVEVAVVAARRAFRRNNWSATSGAHRATYLRAIAAKITEKKDHFVKLETIDSGKPFDEAVLDIDDVASCFEYFAGQAEALDGKQKAPVTLPMERFKSHVLRQPLGVVGLISPWNYPLLMATWKIAPALAAGCTAVLKPSELASVTCLEFGEVCNEVGLPPGVLNILTGLGPDAGAPLVSHPDVDKIAFTGSSATGSKVMASAAQLVKPVTLELGGKSPIVVFEDVDIDKVVEWTIFGCFWTNGQICSATSRLLVHESIAAEFVDKLVKWTKNIKISDPFEEGCRLGPVISKGQYDKIMKFISTAKSEGATILYGGSRPEHLKKGYYIEPTIVTDISTSMQIWKEEVFGPVLCVKTFSSEDEAIALANDTEYGLAAAVFSNDLERCERITKALEVGAVWVNCSQPCFVQAPWGGIKRSGFGRELGEWGIQNYLNIKQVTQDISDEPWGWYKS
notes: betaine aldehyde dehydrogenase (BADH, ALDH10) of Spinacia oleracea; recombinant; Homodimer in K-buffer; associates into tetramers in the non-salt buffer; also called SoBADH; ALDH10; source: E. coli, purified to homogeneity
[1]
  stoichiometry N: 2
[2]
  stoichiometry N: 4

B2: betaine aldehyde dehydrogenase from Pseudomonas aeruginosa (enzyme)
chain: MARFEEQKLYIGGRYVEASSGATFETINPANGEVLAKVQRASREDVERAVQSAVEGQKVWAAMTAMQRSRILRRAVDILRERNDELAALETLDTGKPLAETRSVDIVTGADVLEYYAGLVPAIEGEQIPLRETSFVYTRREPLGVVAGIGAWNYPVQIALWKSAPALAAGNAMIFKPSEVTPLTALKLAEIYTEAGVPDGVFNVLTGSGREVGQWLTEHPLIEKISFTGGTSTGKKVMASASSSSLKEVTMELGGKSPLIIFPDADLDRAADIAVMANFFSSGQVCTNGTRVFIHRSQQARFEAKVLERVQRIRLGDPQDENTNFGPLVSFPHMESVLGYIESGKAQKARLLCGGERVTDGAFGKGAYVAPTVFTDCRDDMTIVREEIFGPVMSILVYDDEDEAIRRANDTEYGLAAGVVTQDLARAHRAIHRLEAGICWINTWGESPAEMPVGGYKQSGVGRENGLTTLAHYTRIKSVQVELGDYASVF
notes: betaine aldehyde dehydrogenase (BADH, ALDH9) of Pseudomonas aeruginosa; recombinant; Homotetramer; also called PaBADH; ALDH9; source: E. coli, purified to homogeneity
[3]
  stoichiometry N: 4
